The numbers were not newly measured in article PMC11969061, which cites them from elsewhere.

pKd: −log10 of the molar value.

The series deals with BTN3A IgV (Homo sapiens) (UniProt O00481).
Sequence of UniProt O00481 (O00481 30-139): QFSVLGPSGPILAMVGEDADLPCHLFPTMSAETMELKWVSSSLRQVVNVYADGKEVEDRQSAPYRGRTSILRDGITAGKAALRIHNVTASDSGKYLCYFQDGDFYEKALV

Regarding BTN2A1 IgV (from UniProt Q7KYR7), the pKd (in general, the negative decadic logarithm of the Kd, by convention in mol/L) was 3.22.
